In experiment [1] the target is human IGF-1R on human non-small cell lung cancer cells (A549) (human) (UniProt P08069). The experiment can be described thus: cell-based or functional assay.
Experiment [2] deals with hIGF-1R-ECD-avi-his (human IGF-1R extracellular region) (human) (UniProt P08069). Description: SPR (Biacore T200), antigen captured by anti-His antibody on CM5 chip, antibody as analyte. A general note: In SPR one partner is held on a chip, and binding of the other changes the refractive index at the surface.

This is an account of results in EP4775595A1.

pKd: −log10 of the molar value.

hIGF-1R-ECD-avi-his (human IGF-1R extracellular region) (human), sequence (P08069 other isoform, or with tags, fused parts or gaps limits assumed): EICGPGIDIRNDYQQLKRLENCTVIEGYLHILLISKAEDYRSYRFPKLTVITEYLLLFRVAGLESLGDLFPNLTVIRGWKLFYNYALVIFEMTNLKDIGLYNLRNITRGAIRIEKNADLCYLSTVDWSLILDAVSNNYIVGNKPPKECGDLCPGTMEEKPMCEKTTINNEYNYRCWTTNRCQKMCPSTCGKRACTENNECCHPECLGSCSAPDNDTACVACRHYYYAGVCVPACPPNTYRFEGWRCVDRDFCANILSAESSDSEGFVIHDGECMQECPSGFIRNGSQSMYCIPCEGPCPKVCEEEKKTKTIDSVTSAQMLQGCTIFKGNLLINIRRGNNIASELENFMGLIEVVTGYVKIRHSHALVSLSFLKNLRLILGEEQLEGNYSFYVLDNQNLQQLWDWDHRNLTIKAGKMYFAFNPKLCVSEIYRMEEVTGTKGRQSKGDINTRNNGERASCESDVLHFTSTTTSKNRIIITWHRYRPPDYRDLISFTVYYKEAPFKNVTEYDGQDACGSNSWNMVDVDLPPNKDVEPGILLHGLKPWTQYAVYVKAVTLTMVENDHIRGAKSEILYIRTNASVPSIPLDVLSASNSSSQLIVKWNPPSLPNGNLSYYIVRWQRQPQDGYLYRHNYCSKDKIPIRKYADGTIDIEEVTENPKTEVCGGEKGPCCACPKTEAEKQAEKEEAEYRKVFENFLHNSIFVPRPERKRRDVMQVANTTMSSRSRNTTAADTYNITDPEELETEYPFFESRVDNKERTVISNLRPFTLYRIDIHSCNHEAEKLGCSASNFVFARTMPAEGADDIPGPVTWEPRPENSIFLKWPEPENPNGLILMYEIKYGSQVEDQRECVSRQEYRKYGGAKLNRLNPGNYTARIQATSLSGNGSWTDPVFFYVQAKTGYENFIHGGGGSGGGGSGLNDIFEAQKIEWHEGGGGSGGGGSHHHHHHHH
human IGF-1R on human non-small cell lung cancer cells (A549) (human), sequence (P08069 31-1367): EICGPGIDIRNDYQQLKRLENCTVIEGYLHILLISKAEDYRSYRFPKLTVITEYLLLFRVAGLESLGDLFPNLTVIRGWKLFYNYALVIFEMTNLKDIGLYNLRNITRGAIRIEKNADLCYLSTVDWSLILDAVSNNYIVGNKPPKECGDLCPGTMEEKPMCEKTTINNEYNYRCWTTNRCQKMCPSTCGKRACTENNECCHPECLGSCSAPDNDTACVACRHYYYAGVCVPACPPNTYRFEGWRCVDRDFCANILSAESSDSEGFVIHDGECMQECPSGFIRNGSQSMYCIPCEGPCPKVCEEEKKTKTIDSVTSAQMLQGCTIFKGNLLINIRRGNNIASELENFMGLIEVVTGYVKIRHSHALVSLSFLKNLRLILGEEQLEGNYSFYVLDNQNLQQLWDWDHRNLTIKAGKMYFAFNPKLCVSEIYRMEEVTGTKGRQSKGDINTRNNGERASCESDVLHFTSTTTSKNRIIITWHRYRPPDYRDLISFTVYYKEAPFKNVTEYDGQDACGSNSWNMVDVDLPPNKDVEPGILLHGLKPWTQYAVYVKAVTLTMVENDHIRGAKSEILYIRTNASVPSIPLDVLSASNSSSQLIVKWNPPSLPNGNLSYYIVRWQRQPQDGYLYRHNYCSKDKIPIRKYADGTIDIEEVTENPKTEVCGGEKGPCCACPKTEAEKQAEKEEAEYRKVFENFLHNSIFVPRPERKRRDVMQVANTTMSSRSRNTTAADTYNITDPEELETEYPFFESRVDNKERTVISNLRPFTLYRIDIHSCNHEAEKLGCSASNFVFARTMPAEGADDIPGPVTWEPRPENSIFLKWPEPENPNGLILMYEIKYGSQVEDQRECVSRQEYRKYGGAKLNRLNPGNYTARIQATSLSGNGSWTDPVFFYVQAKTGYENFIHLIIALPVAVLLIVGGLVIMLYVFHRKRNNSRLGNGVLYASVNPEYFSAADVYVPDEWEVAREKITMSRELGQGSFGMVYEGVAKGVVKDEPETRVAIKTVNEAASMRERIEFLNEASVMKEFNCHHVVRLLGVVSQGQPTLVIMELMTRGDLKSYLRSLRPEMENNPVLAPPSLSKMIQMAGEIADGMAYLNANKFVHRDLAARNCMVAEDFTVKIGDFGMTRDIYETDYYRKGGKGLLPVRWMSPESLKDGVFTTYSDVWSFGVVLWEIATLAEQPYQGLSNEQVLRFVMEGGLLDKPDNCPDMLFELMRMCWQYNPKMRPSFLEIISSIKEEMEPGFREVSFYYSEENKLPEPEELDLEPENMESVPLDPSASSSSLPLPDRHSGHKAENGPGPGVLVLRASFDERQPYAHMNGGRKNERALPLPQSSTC

A word on the pKd: it is the negative decadic logarithm of the Kd, by convention in mol/L. A word on the koff: it is the first-order rate constant of dissociation. A high value points to a short-lived complex. As a reminder, the kon is the second-order rate constant of association. As to “VRDN-001 (Viridian, WO2023019171) (antibody)”, the IC50 (nM), inhibition of IGF1-induced pAKT signaling in A549 cells in experiment [1] was 0.716 nM. In experiment [2], this substance had a negative-log Kd (pKd) of 10.76, an off-rate (koff) of 1.47e-05 s⁻¹ and a kon of 839000 M⁻¹ s⁻¹.

With “Tepezza (Horizon, US2022356257) (antibody)”, in experiment [2], the negative logarithm of the Kd (pKd) was 9.57, the dissociation rate constant (koff) was 0.00109 s⁻¹ and the kon is 4.08e+06 M⁻¹ s⁻¹.
